# Bridge positions count the residues as written; N and C are the ends.
# B1: MaL6, chemically synthesized thioether-macrocyclic peptide, not conjugated to mRNA, with an additional C-terminal glycine-carboxamide (peptide)
# peptide: {CH2CO}-FTFRYSPSLYTWFLFPCG-NH2
# modifications: thioether N-17 (inferred)
# notes: AcF = N-chloroacetyl-L-phenylalanine; selected from the LF-library by RaPID; additional C-terminal glycine-carboxamide; also called chemically synthesized MaL6; mRNA-free MaL6; source: synthetic peptide, HPLC purified
# Target: T1, Pyrococcus furiosus multidrug and toxic compound extrusion (PfMATE) transporter, wild type, His6-tagged, … (Pyrococcus furiosus, UniProt Q8U2X0 1-461)
# T1 construct: PfMATE, MATE family transporter of Pyrococcus furiosus, wild type; Held in HEPES-buffered saline with 0.1% Cymal-6; also called His-tagged PfMATE; source: prepared according to literature [29]; not shown: His6, C-terminal, kept
# T1 sequence (looked up): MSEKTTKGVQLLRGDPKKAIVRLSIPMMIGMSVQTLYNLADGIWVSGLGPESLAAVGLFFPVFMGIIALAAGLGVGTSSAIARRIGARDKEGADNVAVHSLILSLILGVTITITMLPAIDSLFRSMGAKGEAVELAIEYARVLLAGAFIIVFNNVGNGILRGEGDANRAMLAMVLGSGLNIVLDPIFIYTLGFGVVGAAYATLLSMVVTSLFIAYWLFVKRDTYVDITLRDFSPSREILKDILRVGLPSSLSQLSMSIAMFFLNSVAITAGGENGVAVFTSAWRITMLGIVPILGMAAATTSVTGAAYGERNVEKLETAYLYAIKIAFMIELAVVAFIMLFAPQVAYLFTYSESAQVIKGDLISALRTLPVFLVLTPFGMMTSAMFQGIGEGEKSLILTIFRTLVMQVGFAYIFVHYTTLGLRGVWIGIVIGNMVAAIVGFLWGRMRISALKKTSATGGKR
# Experiment: mRNA display selection round with competitor; c-Round 6: 32 µM mRNA-free synthetic MaL6 in the buffer of the binding step, 37 °C, His6-PfMATE on magnetic beads, libraries from Round 5; recovery by real-time PCR
# Settings: both partners purified
binder,measurement,value
B1,binding result,binds
